{
  "source": "patent US20170224620A1",
  "about": "(Pfizer, published 2017)",
  "note": "Bridges are numbered along the chain shown (N, C = ends). Primed or numbered codes have the meaning given here. Side-chain parts run from the residue outwards. [ ]: non-standard residue; d: D form. The star is where a group is joined. Trp(5-OMe) = COc1ccc2[nH]cc(C[C@H](N)C(=O)O)c2c1; Igl = N[C@H](C(=O)O)C1Cc2ccccc2C1; Pen = CC(C)(S)[C@H](N)C(=O)O; DBCO′ = dibenzocyclooctyne; PEG4′ = not defined here; Acm = CC(=O)NC*",
  "data": [
    {"target": "T1, Fc tagged recombinant human EGFR (rhEGFR-Fc, R&D systems, Cat#344-ER-050) (human, UniProt P00533 25-645)", "T1 construct": "Bought protein; also called apo-EGFR; not shown: Fc tag", "experiment": "screening ELISA, peptide 100 µM against 0.7 nM biotin-EGF on coated rhEGFR", "units": {"% inhibition of EGF": "%"}, "values": [
      {"binder": "H-C(Acm)NCVVGYIGE-NH2 (SMILES CC[C@H](C)[C@H](NC(=O)[C@H](Cc1ccc(O)cc1)NC(=O)CNC(=O)[C@@H](NC(=O)[C@@H](NC(=O)[C@H](CS)NC(=O)[C@H](CC(N)=O)NC(=O)[C@@H](N)CSCNC(C)=O)C(C)C)C(C)C)C(=O)NCC(=O)N[C@@H](CCC(=O)O)C(N)=O)", "note": "[EGFf-7]", "% inhibition of EGF": "< 20"},
      {"binder": "H-LDKYACNC(Acm)VV-NH2 (SMILES CC(=O)NCSC[C@H](NC(=O)[C@H](CC(N)=O)NC(=O)[C@H](CS)NC(=O)[C@H](C)NC(=O)[C@H](Cc1ccc(O)cc1)NC(=O)[C@H](CCCCN)NC(=O)[C@H](CC(=O)O)NC(=O)[C@@H](N)CC(C)C)C(=O)N[C@H](C(=O)N[C@H](C(N)=O)C(C)C)C(C)C)", "note": "[EGFf-6]", "% inhibition of EGF": "< 20"},
      {"binder": "H-NSDSECPLSH-NH2", "note": "[EGFf-1]", "% inhibition of EGF": "< 20"},
      {"binder": "H-GYIGERCQYR-NH2", "note": "[EGFf-8]", "% inhibition of EGF": "< 20"},
      {"binder": "H-YRDLKWWELR-NH2", "note": "[EGFf-10]", "% inhibition of EGF": "< 20"},
      {"binder": "H-RCQYRDLKWW-NH2", "note": "[EGFf-9]", "% inhibition of EGF": 63.8}
    ]},
    {"target": "T2, EGF bound EGFR (rhEGFR-Fc with recombinant human EGF pre-injected in SPR or 50 nM EGF present in ELISA) (human, UniProt P00533 25-645; P01133 971-1023)", "T2 construct": "Complex of m1 and m5 as target; also called EGFR in the presence of EGF; With EGF; not shown: Fc tag", "experiment": "P2 competition ELISA, 1% ligand density NP", "units": {"IC50": "µg/mL", "Rel IC50 (against P2 NP)": "ratio"}, "values": [
      {"binder": "DPXTWEVWGREXLQGGK (other, not fully specified; N-terminal acetyl; penicillamine at 3 and 12, disulfide; Lys17(PEG4-DBCO) clicked to azide PLA-PEG nanoparticle at 1%; C-terminal amide, also called P2-55 1% Ligand Density NP)", "note": "[1% P2-55 nanoparticle]", "IC50": 135, "Rel IC50 (against P2 NP)": 1.67},
      {"binder": "Ac-DACTWEVWGRECLQGGK-NH2 (other, disulfide 3-12; not fully specified (residue 17), also called P2-2 1% Ligand Density NP)", "note": "[1% P2-2 nanoparticle]", "IC50": 17, "Rel IC50 (against P2 NP)": 0.2},
      {"binder": "Ac-DPCT[Igl]EV[Trp(5-OMe)]GRECLQGGK([PEG4′-DBCO′])-NH2 (other, disulfide 3-12; not fully specified)", "note": "[1% P2-102 nanoparticle]", "IC50": 7.6, "Rel IC50 (against P2 NP)": 0.09}
    ]},
    {"target": "EGF bound EGFR (rhEGFR-Fc with recombinant human EGF pre-injected in SPR or 50 nM EGF present in ELISA) (human) (UniProt P00533)", "experiment": "P2 competition ELISA, 5% nanoparticle conjugate", "units": {"IC50": "µg/mL"}, "values": [
      {"binder": "Ac-DA[Pen]T[Igl]EV[Trp(5-OMe)]GRE[Pen]LQGGK(DBCO′)-NH2 (disulfide 3-12; not fully specified)", "note": "[5% P2-2/55/102 nanoparticle]", "IC50": 1.6, "Rel. Diff. (against P2 NP)": 0.27},
      {"binder": "Ac-DACT[Igl]EV[Trp(5-OMe)]GRECLQGGK(DBCO′)-NH2 (disulfide 3-12; not fully specified)", "note": "[5% P2-2/102 nanoparticle]", "IC50": 3.7, "Rel. Diff. (against P2 NP)": 0.62},
      {"binder": "Ac-DP[Pen]T[Igl]EV[Trp(5-OMe)]GRE[Pen]LQGGK(DBCO′)-NH2 (disulfide 3-12; not fully specified)", "note": "[5% P2-55/102 nanoparticle]", "IC50": 2.2, "Rel. Diff. (against P2 NP)": 0.37}
    ]}
  ]
}
